{
  "source": "paper PMC3156124",
  "key": {"GEP100": {"biological_target": "GEP100 (UniProt Q6DN90)", "test": "anti-HA (GEP100) IP, anti-V5 (VEGFR2) blot", "details": "reference: wild type VEGFR2-V5; sites Y951"}, "GEP100 PH domain": {"biological_target": "GEP100 PH domain (UniProt Q6DN90)", "test": "peptide dot-blot overlaid with GST-PH", "details": "reference: non-phosphorylated Tyr951 peptide; sites Y951"}},
  "data": [
    {"substance": "VEGFR2 (from UniProt P35968) 951F", "values": [
      {"measurement": "binding against the reference", "setting": "GEP100", "result": "lost"}
    ]},
    {"substance": "VEGFR2 Tyr951 peptide (from UniProt P35968) pY951 peptide", "values": [
      {"measurement": "binding against the reference", "setting": "GEP100 PH domain", "result": "gained"}
    ]}
  ]
}
